{"source": "patent US20240317847A1", "about": "(Bayer, published 2024)", "binders": {"B1": {"name": "TPP-18087 (antibody, mouse IgG1, V domains shown)", "VH": "EVQLLESGGGLVQPGGSLRLSCAASGFTFSHYDMNWLRQAPGKGLEWVGVISYDGSNKFYADFVKGRFTISRDNSKNTLYLQMNSLRAEDTAVYYCARTPGSHFDYWGQGTLVTVSS", "VL": "QSVLTQPPSASGTPGQRVTISCSGSSSNIGNNAVNWYQQLPGTAPKLLIYYDDLLPSGVPDRFSGSKSGTSASLAISGLRSEDEADYYCSAWDDSLNGVVFGGGTKLTVLG", "notes": "mIgG1, Lambda"}, "B2": {"name": "TPP-18068 (antibody, mouse IgG1)", "heavy": "EVQLLESGGGLVQPGGSLRLSCAASGFTFSSYGMHWVRQAPGKGLEWVSVISYDGSYKYYADSVKGRFTISRDNSKNTLYLQMNSLRAEDTAVYYCAAGVPDYWGQGTLVTVSSAKTTPPSVYPLAPGSAAQTNSMVTLGCLVKGYFPEPVTVTWNSGSLSSGVHTFPAVLQSDLYTLSSSVTVPSSTWPSETVTCNVAHPASSTKVDKKIVPRDCGCKPCICTVPEVSSVFIFPPKPKDVLTITLTPKVTCVVVDISKDDPEVQFSWFVDDVEVHTAQTQPREEQFNSTFRSVSELPIMHQDWLNGKEFKCRVNSAAFPAPIEKTISKTKGRPKAPQVYTIPPPKEQMAKDKVSLTCMITDFFPEDITVEWQWNGQPAENYKNTQPIMDTDGSYFVYSKLNVQKSNWEAGNTFTCSVLHEGLHNHHTEKSLSHSPGK", "light": "QSVLTQPPSASGTPGQRVTISCTGSSSNIGAGYDVHWYQQLPGTAPKLLIYSNNERPSGVPDRFSGSKSGTSASLAISGLRSEDEADYYCAAWDDSLNGPVFGGGTKLTVLGQPKSSPSVTLFPPSSEELETNKATLVCTITDFYPGVVTVDWKVDGTPVTQGMETTQPSKQSNNKYMASSYLTLTARAWERHSSYSCQVTHEGHTVEKSLSRADCS", "notes": "mIgG1, Lambda"}, "B3": {"name": "TPP-29603 (bispecific antibody, IgG1)", "chain 1": "QVQLVESGGGVVQPGRSLRLSCAASGFTFSHYDMHWVRQAPGKGLEWVAVISYHGSVKFYADSVKGRFTISRDNSKNTLYLQMNSLRAEDTAVYYCARTPGFHFDYWGQGTLVTVSSGGGGSGGGGSGGGGSQSVLTQPPSASGTPGQRVTISCSGSSSNIGSNYVSWYQQLPGTAPKLLIYYDDLRPSGVPDRFSGSKSGTSASLAISGLRSEDEADYYCSAWDDSLSGVVFGGGTKLTVLGGGGSGGGGSGGGGSGVECPPCPAPPVAGPSVFIFPPKPKDVLTITLTPKVTCVVVDISKDDPEVQFSWFVDDVEVHTAQTQPREEQFNSTFRSVSELPIMHQDWLNGKEFKCRVNSAAFPAPIEKTISKTKGRPKAPQVYTIPPCKEQMAKDKVSLWCMITDFFPEDITVEWQWNGQPAENYKNTQPIMDTDGSYFVYSKLNVQKSNWEAGNTFTCSVLHEGLHNHHTEKSLSHSPGK", "chain 2": "EVQLLESGGGLVQPGGSLRLSCAASGFTFSSYGMHWVRQAPGKGLEWVAVISYDGSYKYYADSVKGRFTISRDNSKNTLYLQMNSLRAEDTAVYYCAAGVPDYWGQGTLVTVSSGGGGSGGGGSGGGGSQSVLTQPPSASGTPGQRVTISCSGSSSNIGSDYDVHWYQQLPGTAPKLLIYSNEERPSGVPDRFSGSKSGTSASLAISGLRSEDEADYYCSAWDSSLSGPVFGGGTKLTVLGGGGSGGGGSGGGGSGVECPPCPAPPVAGPSVFIFPPKPKDVLTITLTPKVTCVVVDISKDDPEVQFSWFVDDVEVHTAQTQPREEQFNSTFRSVSELPIMHQDWLNGKEFKCRVNSAAFPAPIEKTISKTKGRPKAPQVCTIPPPKEQMAKDKVSLSCAITDFFPEDITVEWQWNGQPAENYKNTQPIMDTDGSYFVVSKLNVQKSNWEAGNTFTCSVLHEGLHNHHTEKSLSHSPGK", "notes": "scFv-kih-mIgG1; bispecific comprising CDRs of TPP-29528 and TPP-29519"}, "B4": {"name": "TPP-29697 (bispecific antibody, IgG1)", "chain 1": "QVQLVESGGGVVQPGRSLRLSCAASGFTFSHYDMHWVRQAPGKGLEWVAVISYHGSVKFYADSVKGRFTISRDNSKNTLYLQMNSLRAEDTAVYYCARTPGFHFDYWGQGTLVTVSSGGGGSGGGGSGGGGSQSVLTQPPSASGTPGQRVTISCSGSSSNIGSNYVSWYQQLPGTAPKLLIYYDDLRPSGVPDRFSGSKSGTSASLAISGLRSEDEADYYCSAWDDSLSGVVFGGGTKLTVLGGGGSGGGGSGGGGSGVECPPCPAPPVAGPSVFLFPPKPKDTLMISRTPEVTCVVVGVSHEDPEVKFNWYVDGVEVHNAKTKPREEQYNSTYRVVSVLTVLHQDWLNGKEYKCKVSNKQLPSPIEKTISKAKGQPREPQVYTLPPCRDELTKNQVSLWCLVKGFYPSDIAVEWESNGQPENNYKTTPPVLDSDGSFFLYSKLTVDKSRWQQGNVFSCSVMHEALHNHYTQKSLSLSPGK", "chain 2": "EVQLLESGGGLVQPGGSLRLSCAASGFTFSSYGMHWVRQAPGKGLEWVAVISYDGSYKYYADSVKGRFTISRDNSKNTLYLQMNSLRAEDTAVYYCAAGVPDYWGQGTLVTVSSGGGGSGGGGSGGGGSQSVLTQPPSASGTPGQRVTISCSGSSSNIGSDYDVHWYQQLPGTAPKLLIYSNEERPSGVPDRFSGSKSGTSASLAISGLRSEDEADYYCSAWDSSLSGPVFGGGTKLTVLGGGGSGGGGSGGGGSGVECPPCPAPPVAGPSVFLFPPKPKDTLMISRTPEVTCVVVGVSHEDPEVKFNWYVDGVEVHNAKTKPREEQYNSTYRVVSVLTVLHQDWLNGKEYKCKVSNKQLPSPIEKTISKAKGQPREPQVCTLPPSRDELTKNQVSLSCAVKGFYPSDIAVEWESNGQPENNYKTTPPVLDSDGSFFLVSKLTVDKSRWQQGNVFSCSVMHEALHNHYTQKSLSLSPGK", "notes": "scFv-kih-hIgG1 with Fc-silencing mutations; bispecific comprising CDRs of TPP-29528 and TPP-29519"}}, "key": {"[1]": {"target": "T1, human IL-11 (Invigate, e.g., lot #C121021-19) (human, UniProt P20809 22-199)", "T1 construct": "Bought protein; also called hIL-11; hIL11", "T1 sequence": "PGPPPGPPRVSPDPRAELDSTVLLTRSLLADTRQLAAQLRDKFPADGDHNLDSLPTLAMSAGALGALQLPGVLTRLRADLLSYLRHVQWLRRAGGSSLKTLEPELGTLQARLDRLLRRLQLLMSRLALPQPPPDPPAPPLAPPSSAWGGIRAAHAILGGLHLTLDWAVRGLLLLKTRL", "assay": "SPR, Biacore 8K; antibody captured on anti-human IgG Fc chip, IL-11 analyte 0-50 nM, 1:1 fit"}, "[2]": {"target": "T2, murine IL-11 (Invigate, e.g., lot #C210819-09) (mouse, UniProt P47873 22-199)", "T2 construct": "Bought protein; biotinylated where captured on streptavidin plates; also called mIL-11; mIL11", "T2 sequence": "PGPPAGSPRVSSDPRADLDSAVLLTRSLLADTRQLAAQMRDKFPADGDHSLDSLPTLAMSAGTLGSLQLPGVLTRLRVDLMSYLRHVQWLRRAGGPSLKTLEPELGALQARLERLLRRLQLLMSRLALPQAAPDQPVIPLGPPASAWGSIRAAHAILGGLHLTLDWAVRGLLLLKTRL", "assay": "SPR, Biacore 8K; antibody captured on anti-human IgG Fc chip, IL-11 analyte 0-50 nM, 1:1 fit"}, "human IL2Ra": {"target": "T3, human IL2Ra (human, UniProt P01589 22-240, limits assumed)", "T3 construct": "bought protein, coated on the plate; also called hIL2RA; IL-2 receptor alpha", "T3 sequence (looked up)": "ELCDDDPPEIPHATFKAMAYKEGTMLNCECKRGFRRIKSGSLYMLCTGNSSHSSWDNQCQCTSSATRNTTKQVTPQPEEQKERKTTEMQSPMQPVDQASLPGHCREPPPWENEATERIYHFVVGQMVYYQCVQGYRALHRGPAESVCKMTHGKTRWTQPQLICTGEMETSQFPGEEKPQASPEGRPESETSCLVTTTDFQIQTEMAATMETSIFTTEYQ", "assay": "IL2Ra direct binding ELISA, signal ratio to isotype control", "summary_of_the_method": "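Plates coated overnight at 4-8 °C with IL2RA at 1 or 0 μg/ml, blocked with SmartBlock. Antibody dilution series from 1E-7 to 2E-13 M bound 90 min at room temperature, detected with HRP anti-mouse IgG and Amplex red/H2O2; fluorescence at 535/590 nm.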"}, "human IL-11": {"target": "T4, human IL-11 (human, UniProt P20809 22-199)", "T4 construct": "Invigate recombinant protein; biotinylated when immobilized in the Di-complex ELISA; also called hIL11; hIL-11", "T4 sequence": "T1 sequence", "assay": "Di-complex ELISA, canine IL11RA-hFc binding to immobilized hIL-11, competition", "description": "(§1) In the Di-complex ELISA format anti IL-11 antibodies are tested for the ability to interfere with the formation of complexes consisting of immobilized murine IL-11 (Invigate, e.g., lot #C210819-09) or human IL-11 (Invigate, e.g., lot #C121021-19), and murine IL11RA-Fc fusion proteins or canine IL11RA-human-Fc fusion protein (FIG. 17a, b).\n(§2) Bispecific antibodies were subjected to the experimental assay procedure described in Example 18 and IC50 [M], respectively efficacy (%) were calculated accordingly."}, "murine IL-11": {"target": "T5, murine IL-11 (mouse, UniProt P47873 22-199)", "T5 construct": "Invigate recombinant protein; biotinylated when immobilized in the Di-complex ELISA; also called mIL11; mIL-11", "T5 sequence": "T2 sequence", "assay": "Di-complex ELISA, murine IL11RA-Fc binding to immobilized mIL-11, competition", "description": "as §1, §2"}}}
{"binder": "B1", "values": [{"measurement": "Kd", "setting": "[1]", "result": 5.2, "unit": "nM"}, {"measurement": "Kd", "setting": "[2]", "result": 12, "unit": "nM"}]}
{"binder": "B2", "values": [{"measurement": "hIL2RA ELISA Binding: Ratio to Isotpye", "setting": "human IL2Ra", "result": 398, "unit": "ratio"}]}
{"binder": "B3", "values": [{"measurement": "IC50", "setting": "human IL-11", "result": 1.7, "unit": "nM"}]}
{"binder": "B4", "values": [{"measurement": "IC50", "setting": "murine IL-11", "result": 1.4, "unit": "nM"}]}
